# Results from paper doi:10.1101/2024.06.03.596960 (bioRxiv, 2024).
# B1: ZBTB16 BTB domain (residues 1-130) (domain or fragment)
# chain: MDLTKMGMIQLQNPSHPTGLLCKANQMRLAGTLCDVVIMVDSQEFHAHRTVLACTSKMFEILFHRNSQHYTLDFLSPKTFQQILEYAYTATLQAKAEDLDDLLYAAEILEIEYLEEQCLKMLETIQASDD
# Molecular target: His10-TEV-BACH1^BTB (UniProt O14867)
# Experiment: AlphaScreen or HTRF
row,Molecule,IC50 [nM]
1,"SKP1-FBXO22(Q307E) (cancer-associated, TCGA) (from UniProt P63208 2-163; Q8NEZ5 12-403) (complex)",575
2,"SKP1-FBXO22(Q307R) (cancer-associated, TCGA) (from UniProt P63208 2-163; Q8NEZ5 12-403) (complex)",165
3,"SKP1-FBXO22(R367L) (cancer-associated, TCGA) (from UniProt P63208 2-163; Q8NEZ5 12-403) (complex)",1040
4,"SKP1-FBXO22(R367W) (cancer-associated, TCGA) (from UniProt P63208 2-163; Q8NEZ5 12-403) (complex)",1480
5,SKP1-FBXO22(R376D) (from UniProt P63208 2-163; Q8NEZ5 12-403) (complex),900
6,SKP1-FBXO22(R376P) (from UniProt P63208 2-163; Q8NEZ5 12-403) (complex),1350

# Molecular target: biotinylated ^AviSKP1-FBXO22(12-403) (UniProt P63208)
# Sequence (P63208 2-163, chain 1 of 2): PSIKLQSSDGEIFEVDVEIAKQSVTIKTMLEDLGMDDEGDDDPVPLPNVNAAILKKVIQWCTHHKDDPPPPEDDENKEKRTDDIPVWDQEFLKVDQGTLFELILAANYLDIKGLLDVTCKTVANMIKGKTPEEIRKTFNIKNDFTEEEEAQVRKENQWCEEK
# Sequence (Q8NEZ5 12-403, chain 2 of 2, further chain): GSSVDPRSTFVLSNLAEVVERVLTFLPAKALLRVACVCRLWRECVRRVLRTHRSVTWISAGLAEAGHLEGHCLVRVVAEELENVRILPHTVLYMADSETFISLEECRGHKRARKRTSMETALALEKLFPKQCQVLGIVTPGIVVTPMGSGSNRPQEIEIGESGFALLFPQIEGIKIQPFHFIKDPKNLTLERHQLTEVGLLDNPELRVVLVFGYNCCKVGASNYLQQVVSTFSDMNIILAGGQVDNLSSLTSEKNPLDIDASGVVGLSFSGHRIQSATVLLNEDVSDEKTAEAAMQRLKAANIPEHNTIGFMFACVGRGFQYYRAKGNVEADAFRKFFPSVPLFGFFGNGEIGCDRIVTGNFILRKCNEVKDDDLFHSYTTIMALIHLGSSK
# Experiment: AlphaScreen or HTRF
row,Molecule,IC50 [nM]
1,"BACH1 BTB domain (residues 7-128), wild type, tag-free (from UniProt O14867 7-128) (domain or fragment)",64
2,BACH1^BTB E12R (from UniProt O14867 7-128) (domain or fragment),149
3,BACH1^BTB F9A (from UniProt O14867 7-128) (domain or fragment),320
4,BACH1^BTB F125A (from UniProt O14867 7-128) (domain or fragment),7460
5,BACH1^BTB F125Y (from UniProt O14867 7-128) (domain or fragment),656
6,BACH1^BTB S13A (from UniProt O14867 7-128) (domain or fragment),183
7,BACH1^BTB S13D (from UniProt O14867 7-128) (domain or fragment),2460
8,BACH1^BTB Y11A (from UniProt O14867 7-128) (domain or fragment),2660
9,BACH1^BTB Y11F (from UniProt O14867 7-128) (domain or fragment),140
10,BACH2 BTB domain (residues 8-131) (from UniProt Q9BYV9 8-131) (domain or fragment),85
11,KEAP1 BTB domain (residues 48-180) (from UniProt Q14145 48-180) (domain or fragment),150

# Molecular target: biotinylated ^AviSKP1-FBXO22(12-403) (UniProt P63208)
# Experiment: AlphaScreen or HTRF
# Remark: another data set of the same source
row,Molecule,IC50 [nM]
1,B1,622
